Assay results as given in paper PMC7292828, “Mechanical unfolding of a knotted protein unveils the kinetic and thermodynamic consequences of threading a polypeptide chain” (Scientific Reports, 2020).

Target: the molecule itself
Assay: SEC; size exclusion chromatography on a Superdex S75 column (GE Healthcare); dimeric state in solution

Protein	stoichiometry N
MJ0366 from Methanocaldococcus jannaschii, wild type (natural protein, UniProt Q57812 1-92, looked up, MJ0366, Methanocaldococcus jannaschii, knotted protein of 92 residues; If it was, ENLYFQ would remain at the C-terminus; also called wild type protein) MPLVGFMKEKKRATFYLYKNIDGRKLRYLLHKLENVENVDIDTLRRAIEAEKKYKRSITLTEEEEVIIQRLGKSANLLLNCELVKLDEGERA	2
MJ0366 construct K19C/K73C in the background of C81A (natural protein, Methanocaldococcus jannaschii, UniProt Q57812 1-92, looked up, MJ0366, Methanocaldococcus jannaschii, 92 residues; double cysteine mutant with C81A; A TEV site ENLYFQG stands between the C-terminus and the His tag; also called F19C/K73C (as printed once in the results)) MPLVGFMKEKKRATFYLYCNIDGRKLRYLLHKLENVENVDIDTLRRAIEAEKKYKRSITLTEEEEVIIQRLGCSANLLLNAELVKLDEGERA	2
MJ0366 construct F6C/K73C in the background of C81A (natural protein, Methanocaldococcus jannaschii, UniProt Q57812 1-92, looked up, MJ0366, Methanocaldococcus jannaschii, 92 residues; double cysteine mutant with C81A; A TEV site ENLYFQG stands between the C-terminus and the His tag) MPLVGCMKEKKRATFYLYKNIDGRKLRYLLHKLENVENVDIDTLRRAIEAEKKYKRSITLTEEEEVIIQRLGCSANLLLNAELVKLDEGERA	2
MJ0366 construct F6C/G89C in the background of C81A (natural protein, Methanocaldococcus jannaschii, UniProt Q57812 1-92, looked up, MJ0366, Methanocaldococcus jannaschii, 92 residues; double cysteine mutant with C81A; A TEV site ENLYFQG stands between the C-terminus and the His tag; also called K6C/K89C (as printed once in the discussion)) MPLVGCMKEKKRATFYLYKNIDGRKLRYLLHKLENVENVDIDTLRRAIEAEKKYKRSITLTEEEEVIIQRLGKSANLLLNAELVKLDECERA	2
